These are literature values, as cited in publication PMC3815026.

Usually Kd stands for the free concentration of one partner at which half of the binding sites on the other are occupied at equilibrium, for simple one-to-one binding.

The target of data set [1] is C1q (Homo sapiens) (UniProt P02745). Nature of the data set: Scatchard.
Data set [2] concerns the target MBL (Homo sapiens) (UniProt P11226). Nature of the data set: Scatchard.

Chain of serglycin (myeloma cell-derived) (P10124 28-158): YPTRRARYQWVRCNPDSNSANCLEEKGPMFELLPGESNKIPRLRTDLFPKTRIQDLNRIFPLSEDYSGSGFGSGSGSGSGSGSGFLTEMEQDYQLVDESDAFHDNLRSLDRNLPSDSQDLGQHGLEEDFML
Chain of C1q (Homo sapiens) (P02745 23-245, chain 1 of 3): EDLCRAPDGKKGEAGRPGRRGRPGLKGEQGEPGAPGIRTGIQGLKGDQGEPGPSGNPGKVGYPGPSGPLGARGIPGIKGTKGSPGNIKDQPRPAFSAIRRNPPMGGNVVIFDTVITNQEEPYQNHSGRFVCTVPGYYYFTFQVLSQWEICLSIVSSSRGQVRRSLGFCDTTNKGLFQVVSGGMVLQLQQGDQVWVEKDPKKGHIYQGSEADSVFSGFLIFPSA
Chain of C1q (Homo sapiens) (P02746 28-253, chain 2 of 3, further chain): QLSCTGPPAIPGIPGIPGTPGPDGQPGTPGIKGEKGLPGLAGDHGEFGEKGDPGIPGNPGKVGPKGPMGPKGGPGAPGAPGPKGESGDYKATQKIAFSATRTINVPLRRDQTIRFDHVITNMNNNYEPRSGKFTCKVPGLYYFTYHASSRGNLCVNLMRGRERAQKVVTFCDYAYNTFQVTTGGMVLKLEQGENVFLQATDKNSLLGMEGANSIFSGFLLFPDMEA
Chain of C1q (Homo sapiens) (P02747 29-245, chain 3 of 3, further chain): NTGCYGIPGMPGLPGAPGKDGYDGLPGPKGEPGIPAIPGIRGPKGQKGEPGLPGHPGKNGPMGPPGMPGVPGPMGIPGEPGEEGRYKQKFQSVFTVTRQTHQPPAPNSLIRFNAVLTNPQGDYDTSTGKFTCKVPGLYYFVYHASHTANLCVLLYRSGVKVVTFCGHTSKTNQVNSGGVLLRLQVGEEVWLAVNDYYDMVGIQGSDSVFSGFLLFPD
Chain of MBL (Homo sapiens) (P11226 21-248): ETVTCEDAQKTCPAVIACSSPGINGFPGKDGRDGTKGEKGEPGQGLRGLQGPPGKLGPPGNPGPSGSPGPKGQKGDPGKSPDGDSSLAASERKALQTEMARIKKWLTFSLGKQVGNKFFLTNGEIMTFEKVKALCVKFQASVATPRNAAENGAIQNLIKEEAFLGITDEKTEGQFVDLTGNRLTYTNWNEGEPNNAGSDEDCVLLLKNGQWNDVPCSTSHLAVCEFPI

Consider “serglycin (myeloma cell-derived) (from UniProt P10124)”, for which the Kd is 40 nM in data set [1] and 19 nM in data set [2].
